Measurements reported in patent US8092810B2, “Use of polypeptides having antimicrobial activity” (Novozymes A/S, priority 2006, dated 2012).

How the values were obtained:
[1] = test system: Burkholderia cepacia ATCC 25416; test: MIC broth microdilution; type: cell-based; conditions: Burkholderia cepacia ATCC 25416, Gram −; MHB, 35° C., 24 hours
[2] = test system: Bacillus cereus ATCC 4342; test: MIC broth microdilution; type: cell-based
Experimental: (§1) Briefly, the MIC was determined by microbroth dilution assay in a 96 well plate. 4-5 colonies of each bacterium tested were added to 5 ml of MHB, placed in a 35° C. shaker until the OD 600 nm reached 0.08-0.10. The inoculum was diluted 1:100 and 50 microliters were added to each well which contained 50 microliters of serial two fold dilutions of Lento, vancomycin or ciprofloxacin. Each concentration of antibiotic or Lento was tested in duplicate. The plate was placed at 35° C. overnight. MICs were determined after 24 hours incubation and defined by the well containing the lowest amount of antibiotic with no visible growth.

[3] = test system: Corynebacterium jeikeium ATCC 43216; test: MIC broth microdilution; type: cell-based; conditions: Corynebacterium jeikeium ATCC 43216, Gram +; MHB, 35° C., 24 hours
Experimental: as §1

[4] = test system: Corynebacterium jeikeium ATCC 43734; test: MIC broth microdilution; type: cell-based; conditions: Corynebacterium jeikeium ATCC 43734, Gram +; MHB, 35° C., 24 hours
Experimental: as §1

[5] = test system: Enterococcus faecalis (VRE) ATCC 51299; test: MIC broth microdilution; type: cell-based
Experimental: as §1

[6] = test system: Enterococcus faecium ATCC 51559; test: MIC broth microdilution; type: cell-based
Experimental: as §1

[7] = test system: Micrococcus luteus ATCC 9341; test: MIC broth microdilution; type: cell-based
Experimental: as §1

[8] = test system: Shigella dysenteriae ATCC 11835; test: MIC broth microdilution; type: cell-based; conditions: Shigella dysenteriae ATCC 11835, Gram −; MHB, 35° C., 24 hours
Experimental: as §1

[9] = test system: Staphylococcus aureus ATCC 29213; test: MIC broth microdilution; type: cell-based; conditions: Staphylococcus aureus ATCC 29213, Gram +; MHB, 35° C., 24 hours
Experimental: as §1

[10] = test system: Staphylococcus aureus ATCC 29737; test: MIC broth microdilution; type: cell-based
Experimental: as §1

[11] = test system: Staphylococcus epidermidis ATCC 12228; test: MIC broth microdilution; type: cell-based; conditions: Staphylococcus epidermidis ATCC 12228, Gram +; MHB, 35° C., 24 hours
Experimental: as §1

[12] = test system: Streptococcus pneumoniae (PSRSP) ATCC 700671; test: MIC broth microdilution; type: cell-based; conditions: Streptococcus pneumoniae (PSRSP) ATCC 700671, Gram +; MHB, 35° C., 24 hours
Experimental: as §1

[13] = test system: Streptococcus pneumoniae (TCRSP) ATCC 700902; test: MIC broth microdilution; type: cell-based; conditions: Streptococcus pneumoniae (TCRSP) ATCC 700902, Gram +; MHB, 35° C., 24 hours
Experimental: as §1

[14] = test system: Streptococcus pneumoniae ATCC 49619; test: MIC broth microdilution; type: cell-based; conditions: Streptococcus pneumoniae ATCC 49619, Gram +; MHB, 35° C., 24 hours
Experimental: as §1

[15] = test system: Streptococcus pneumoniae ATCC 700676; test: MIC broth microdilution; type: cell-based; conditions: Streptococcus pneumoniae ATCC 700676, Gram +; MHB, 35° C., 24 hours
Experimental: as §1

[16] = test system: Bacillus cereus ATCC 4342; test: MBC determination; type: cell-based; conditions: concentration that kills 99.9%
Experimental: Minimal inhibitory concentrations (MIC) and minimal bactericidal concentrations (MBC) were determined by broth microdilution in MHB as described by the NCCLS (National Committee for Clinical Laboratory Standards, in: Methods for Determining Bactericidal Activity of Antimicrobial Agents; Approved Guideline. National Committee for Clinical Laboratory Standards (M26-A), Vol. 19, 1999).
Briefly, the MIC was determined by microbroth dilution assay in a 96 well plate. 4-5 colonies of each bacterium tested were added to 5 ml of MHB, placed in a 35° C. shaker until the OD 600 nm reached 0.08-0.10. […] MICs were determined after 24 hours incubation and defined by the well containing the lowest amount of antibiotic with no visible growth.
To determine the MBC, 10 microliters from each well with no growth was plated in duplicate and allowed to grow overnight on Mueller-Hinton agar (Difco Catalog number 225250, Becton Dickinson and Company, Sparks, Md., US; 2.0 g beef extract powder, 17.5 g acid digest of casein, 1.5 g starch, 17 g agar—per 1000 ml of water). The MBC is based on the inoculum concentration, which was determined by plating in duplicate 50 microliters of 10^−2, 10^−3, and 10^−4 of the inoculum used for MICs. MBCs were determined as described by the NCCLS guidelines (cited above). […]

[17] = test system: Enterococcus faecalis (VRE) ATCC 51299; test: MBC determination; type: cell-based; conditions: concentration that kills 99.9%
Experimental: as §1
(§2) MBCs were determined as described by the NCCLS guidelines (cited above).

[18] = test system: Enterococcus faecium ATCC 51559; test: MBC determination; type: cell-based; conditions: concentration that kills 99.9%
Experimental: as §1, §2

[19] = test system: Micrococcus luteus ATCC 9341; test: MBC determination; type: cell-based; conditions: concentration that kills 99.9%
Experimental: as §1, §2

[20] = test system: Staphylococcus aureus ATCC 29737; test: MBC determination; type: cell-based; conditions: concentration that kills 99.9%
Experimental: as §1, §2

[21] = test system: gram-positive bacterial strains; test: MIC assay, summary over gram-positive strains; type: cell-based; conditions: a number of gram-positive strains, with the exception of certain strains of Staphylococcus
Experimental: as §1

[22] = test system: gram-negative bacterial strains; test: MIC assay, summary over gram-negative strains; type: cell-based; conditions: gram-negative bacterial strains of Table 1
Experimental: as §1

[23] = test system: all bacteria tested (Table 2); test: MBC versus MIC, bactericidal classification; type: cell-based; conditions: all bacteria tested with the exception of E. faecium ATCC 51559
Experimental: To determine the MBC, 10 microliters from each well with no growth was plated in duplicate and allowed to grow overnight on Mueller-Hinton agar (Difco Catalog number 225250, Becton Dickinson and Company, Sparks, Md., US; 2.0 g beef extract powder, 17.5 g acid digest of casein, 1.5 g starch, 17 g agar—per 1000 ml of water). The MBC is based on the inoculum concentration, which was determined by plating in duplicate 50 microliters of 10^−2, 10^−3, and 10^−4 of the inoculum used for MICs. MBCs were determined as described by the NCCLS guidelines (cited above). The MBC is the concentration of the tested compound that kills 99.9% of the microorganism inoculated into the well.
Based on this definition, Lento is bactericidal against all bacteria tested with the exception of E. faecium ATCC 51559.

[24] = Thermostability by Differential Scanning calorimetry (DSC); type: physicochemical
Experimental: Differential Scanning calorimetry (DSC) was used to determine temperature stability of the Lento protein at pH 2.5, 4.0 and 7.0. Purified Lento in a concentration of about 2 mg/ml was dialysed over night at 4° C. against appropriate buffer and run on a VP-DSC instrument (MicroCal) with a constant scan rate of 1.5° C./min from 20 to 90° C. Data-handling was performed using the MicroCal Origin software (version 4.10), and denaturation temperature was defined as temperature at the apex of the enthalpy peak. […] In 10 mM sodium acetate, 50 mM NaCl, pH 4.0, Lento denatured at 69° C., and in 10 mM sodium phosphate, 50 mM NaCl, pH 7.0 the denaturation temperature was 60° C.

B1: Lento: Bacillus licheniformis polypeptide having amino acids 1-85 of SEQ ID NO: 2, purified from ATCC 14580 fermentation broth (protein)
chain: MKNHLYEKKKRKPLTRTIKATLAVLTMSIALVGGATVPSFAWVNPGYHYQYPSEGGTWRYGFVNAGLRSEYNHPTKVHGSTVQKL
modifications: Bacillus licheniformis ATCC 14580
**Q.** Which results are given for B1?
**A.** MIC [1]: >256 microgram/ml; MIC ([2]; Bacillus cereus ATCC 4342, Gram +, MHB, 35° C., 24 hours): 0.5-1 microgram/ml; MIC ([2]; Table 2 (MBC results), Bacillus cereus ATCC 4342): 1 microgram/ml; MIC [3]: 0.125 microgram/ml; MIC [4]: 2 microgram/ml; MIC ([5]; Enterococcus faecalis (VRE) ATCC 51299, Gram +, MHB, 35° C., 24 hours): 8 microgram/ml; MIC ([5]; Table 2 (MBC results), Enterococcus faecalis (VRE) ATCC 51299): 64 microgram/ml; MIC ([6]; Enterococcus faecium ATCC 51559, Gram +, MHB, 35° C., 24 hours): 4 microgram/ml; MIC ([6]; Table 2 (MBC results), Enterococcus faecium ATCC 51559): 4 microgram/ml; MBC ([7]; Micrococcus luteus ATCC 9341, Gram +, MHB, 35° C., 24 hours): 8 microgram/ml; MBC ([7]; Table 2 (MBC results), Micrococcus luteus ATCC 9341): 8 microgram/ml; MIC [8]: >256 microgram/ml; MIC [9]: 64 microgram/ml; MBC ([10]; Staphylococcus aureus ATCC 29737, Gram +, MHB, 35° C., 24 hours): 8-32 microgram/ml; MBC ([10]; Table 2 (MBC results), Staphylococcus aureus ATCC 29737): 32 microgram/ml; MIC [11]: 128 microgram/ml; MIC [12]: 2 microgram/ml; MIC [13]: 4-8 microgram/ml; MIC [14]: 1-2 microgram/ml; MIC [15]: 4 microgram/ml; MBC [16]: 1 microgram/ml; MBC [17]: 64 microgram/ml; MBC [18]: >64 microgram/ml; MBC [19]: 8 microgram/ml; MBC [20]: 32 microgram/ml; antimicrobial effect on gram-positive bacterial strains [21]: pronounced antimicrobial effect; antimicrobial effect on gram-negative bacterial strains [22]: uncertain if any antimicrobial effect; bactericidal (MBC within four fold of the MIC) [23]: bactericidal; denaturation temperature (DSC) ([24]; 10 mM citric acid, 50 mM sodium chloride, pH 2.5): 55 °C; denaturation temperature (DSC) ([24]; 10 mM sodium acetate, 50 mM NaCl, pH 4.0): 69 °C; denaturation temperature (DSC) ([24]; 10 mM sodium phosphate, 50 mM NaCl, pH 7.0): 60 °C
